From article PMC11488100, “PET imaging of CXCR4 expression using [^18F]AlF-NOTA-QHY-04 for hematologic malignancy and solid tumors” (Theranostics, 2024)
Bridge positions count the residues as written; N and C are the ends. Square brackets hold non-standard residues; d marks the D form. Peptide text beside a SMILES is read from it. * marks the point of attachment. NOTA = O=C(O)CN1CCN(CC(=O)O)CCN(CC(=O)*)CC1; 2Nal = N[C@@H](Cc1ccc2ccccc2c1)C(=O)O; Pen = CC(C)(S)[C@H](N)C(=O)O; 4Amb = NCc1ccc(C(=O)O)cc1; Ahx = NCCCCCC(=O)O

Legend:
[1] = assay type: in vitro ADME, human
Experimental: The in vitro and in vivo stability of [^18F]AlF-NOTA-QHY-04 were evaluated by radio-HPLC to examine the RCP after different incubation periods. The binding affinity of the unlabeled precursor to CXCR4 was measured using the biolayer interferometry Octet Red96 system (PALL ForteBio, USA). The details are supplied in the supplemental materials.
Synthesis of [18F]AlF-NOTA-QHY-04
Briefly, NOTA-QHY-04 was radiolabeled with [18F]F-, following procedures. 10-20 […]
GBq [18F]F− produced by medical cyclotron (MINITRACE Cyclotron, GE, USA) was […]
captured with a QMA SepPak light cartridge (Waters Corporation, USA) and then eluted […]
with 300-500 μL saline (0.9% NaCl). Then, the saline containing [18F]F− was added to […]
The partition coefficient (logD) of [18F]AlF-NOTA-QHY-04 was determined in a […]
from each phase were measured for radioactivity using a γ-counter. […]
repeated three times to ensure the accuracy of the results. The logD was calculated by […]
dividing the average radioactivity in the 1 -octanol layer by that in the PBS layer, and the […]
human serum albumin solution were evaluated by radio-HPLC to examine the radiochemical purity after different incubation periods. For the saline study, 200 μL of [18F]AlF-NOTA-QHY-04 (0.74–3.70 MBq) was incubated at 37°C with 800 μL of saline for 1 h, 3 h and 6 h respectively, and then directly evaluated by radio -HPLC. […]

[2] = in vivo; cited from earlier work
Excerpt: (Figure 3A and 3B). In contrast, the blood, heart, liver, ...

[3] = set-up: species or system mice; details: mouse, in vivo
Experimental: The xenografted mice were injected with [^18F]AlF-NOTA-QHY-04 (3.70 ± 0.74 MBq) in about 150 μL saline via the tail vein. All the PET scans were performed with micro-PET/CT (IRIS PET/CT, Inviscan, France) and the radioactivity were expressed as %ID/mL. Detailed procedures for dynamic, static imaging and blocking studies are provided in the supplemental materials. Biodistribution studies were conducted using mice with xenografted A549/CXCR4 tumors with and without blocking (n = 3). The mice were sacrificed immediately after static PET/CT 1 h post injection (p.i.), then the tumors and organs were quickly collected, weighed and counted for radioactivity by a γ-counter. The γ-counter activity readings were background- and decay-corrected and represented as the percentage of injected dose per gram of tissue (%ID/g).

C[C@H](NC(=O)[C@H](CCCNC(=N)N)NC(=O)CCCCCNC(=O)c1ccc(CNC(=O)CN2CCN(CC(=O)O)CCN(CC(=O)O)CC2)cc1)C(=O)N[C@@H]1CSSC(C)(C)[C@@H](C(=O)O)NC(=O)[C@H](Cc2c[nH]cn2)NC(=O)[C@H](Cc2ccc3ccccc3c2)NC(=O)[C@H](CCCNC(=N)N)NC1=O [[^18F]AlF-NOTA-QHY-04] ({NOTA-4Amb-Ahx}-RA[dC]R[2Nal]H[Pen]-OH; disulfide 3-7)
radiochemical purity after incubation in 5% human serum albumin solution [1]: above 95%
acute radiotoxicity [2]: no acute radiotoxicity
Tumor-to-organ ratio T/Blood [3]: 3.63 ± 0.56
Tumor-to-organ ratio T/Heart [3]: 7.77 ± 0.60
Tumor-to-organ ratio T/Kidney [3]: 0.23 ± 0.05
Tumor-to-organ ratio T/Liver [3]: 1.84 ± 0.17
Tumor-to-organ ratio T/Muscle [3]: 10.94 ± 5.33
